This series deals with T1, TFB2M T313E (human, UniProt Q9H5Q4 21-396, T313E).
T1 sequence: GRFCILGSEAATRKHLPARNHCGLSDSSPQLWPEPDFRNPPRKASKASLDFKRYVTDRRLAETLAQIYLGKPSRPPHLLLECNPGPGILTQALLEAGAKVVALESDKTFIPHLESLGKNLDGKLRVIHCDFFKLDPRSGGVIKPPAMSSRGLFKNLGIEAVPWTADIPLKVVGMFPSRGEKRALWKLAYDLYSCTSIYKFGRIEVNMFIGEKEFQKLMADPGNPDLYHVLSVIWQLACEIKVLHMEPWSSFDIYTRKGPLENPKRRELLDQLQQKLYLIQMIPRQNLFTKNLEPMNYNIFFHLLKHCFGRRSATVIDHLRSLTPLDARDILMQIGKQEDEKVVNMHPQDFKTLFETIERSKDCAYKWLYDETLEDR
The series can be described thus: fluorescence anisotropy.

Data on one molecule can be found in article PMC9161741.

B1: LSP (-17 to +19), fluorescein (dsDNA)
DNA 1: AAAAGTGCATACCGCCAAAAGATAAAATTTGAAATC
DNA 2: GATTTCAAATTTTATCTTTTGGCGGTATGCACTTTT
Turning to B1, the Kd (as a rule, the equilibrium constant for the complex coming apart) is greater than 150 nM.
